Patent publication US20100040604A1

Experiments:
[1] = biological target: recombinant human TNFα (rhTNFα) (human) (UniProt P01375); test: SPR (BIAcore), biotinylated rhTNFα on streptavidin chip; [Ab] 400 nM
[2] = biological target: recombinant human TNFα (rhTNFα) (human) (UniProt P01375); test: SPR (BIAcore), biotinylated rhTNFα on streptavidin chip; [Ab] 50 nM
[3] = biological target: recombinant human TNFα (rhTNFα) (human) (UniProt P01375); test: SPR (BIAcore), biotinylated rhTNFα on streptavidin chip; [Ab] 200 nM
[4] = biological target: recombinant human TNFα (rhTNFα) (human) (UniProt P01375); test: SPR (BIAcore), biotinylated rhTNFα on streptavidin chip; [Ab] 13 nM
[5] = biological target: recombinant human TNFα (rhTNFα) (human) (UniProt P01375); test: SPR (BIAcore), biotinylated rhTNFα on streptavidin chip; [Ab] 100 nM
[6] = biological target: recombinant human TNFα (rhTNFα) (human) (UniProt P01375); test: SPR (BIAcore), biotinylated rhTNFα on streptavidin chip; [Ab] 6 nM
[7] = biological target: recombinant human TNFα (rhTNFα) (human) (UniProt P01375); test: SPR (BIAcore), biotinylated rhTNFα on streptavidin chip; [Ab] 25 nM
[8] = biological target: recombinant human TNFα (rhTNFα) (human) (UniProt P01375); test: SPR (BIAcore), summary table
[9] = biological target: recombinant human TNFα (rhTNFα) (human) (UniProt P01375); test: SPR (BIAcore), biotinylated rhTNFα on streptavidin chip; average over the concentrations
[10] = biological target: recombinant human TNFα (rhTNFα) (human) (UniProt P01375); test: cell-based or functional assay
[11] = biological target: recombinant human TNFα (rhTNFα) (human) (UniProt P01375); test: SPR (BIAcore), biotinylated rhTNFα on streptavidin chip; [Ab] 3 nM

recombinant human TNFα (rhTNFα) (human), sequence (P01375 77-233 limits assumed): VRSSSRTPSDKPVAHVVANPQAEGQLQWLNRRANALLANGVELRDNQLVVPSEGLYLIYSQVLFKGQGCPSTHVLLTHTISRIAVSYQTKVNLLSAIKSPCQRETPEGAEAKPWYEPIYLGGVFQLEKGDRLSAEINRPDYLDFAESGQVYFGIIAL

- Ab, bound, RUs [1]: 881 RU
- koff [1]: 5.38e-05 s⁻¹
- rhTNFα/Ab [1]: 1.2
- Ab, bound, RUs [2]: 1110 RU
- koff [2]: 3.67e-05 s⁻¹
- rhTNFα/Ab [2]: 1.32
- Ab, bound, RUs [3]: 1080 RU
- koff [3]: 4.54e-05 s⁻¹
- rhTNFα/Ab [3]: 1.38
- Ab, bound, RUs [4]: 708 RU
- koff [4]: 3.66e-05 s⁻¹
- rhTNFα/Ab [4]: 0.78
- Ab, bound, RUs [5]: 1140 RU
- koff [5]: 3.54e-05 s⁻¹
- rhTNFα/Ab [5]: 1.39
- Ab, bound, RUs [6]: 433 RU
- koff [6]: 7.37e-05 s⁻¹
- rhTNFα/Ab [6]: 0.47
- Ab, bound, RUs [7]: 957 RU
- koff [7]: 4.41e-05 s⁻¹
- rhTNFα/Ab [7]: 1.09
- Kd [8]: 0.46 nM
- Stoichiometry [8]: 1.4
- koff [8]: 8.7e-05 s⁻¹
- kon [8]: 190000 M⁻¹ s⁻¹
- koff [9]: 4.94e-05 s⁻¹
- Ab, bound, RUs [11]: 231 RU
- koff [11]: 6.95e-05 s⁻¹
- rhTNFα/Ab [11]: 0.26
Substance: MAK 195 F(ab′)2 fragment (murine anti-hTNFα mAb)
- IC50, neutralization of TNFα-induced L929 cytotoxicity [10]: 0.062 nM
